Assay results from PMC7784689, “Structural mechanism of phospholipids translocation by MlaFEDB complex” (Cell Research, 2020).
Positions count from the first letter of the chain named.

B1: MlaE (natural protein, E. coli K-12, UniProt P64606 1-260, looked up)
chain: MLLNALASLGHKGIKTLRTFGRAGLMLFNALVGKPEFRKHAPLLVRQLYNVGVLSMLIIVVSGVFIGMVLGLQGYLVLTTYSAETSLGMLVALSLLRELGPVVAALLFAGRAGSALTAEIGLMRATEQLSSMEMMAVDPLRRVISPRFWAGVISLPLLTVIFVAVGIWGGSLVGVSWKGIDSGFFWSAMQNAVDWRMDLVNCLIKSVVFAITVTWISLFNGYDAIPTSAGISRATTRTVVHSSLAVLGLDFVLTALMFGN
notes: MlaE, the transmembrane (permease) subunit of the MlaFEDB ABC transporter, E. coli K-12; expressed from the full mlaFEDCB operon amplified from genomic DNA; Homodimer within the 2:2:6:2 MlaFEDB complex; also called TMD protein MlaE
B2: MlaD (natural protein, E. coli K-12, UniProt P64604 1-183, looked up)
chain: MQTKKNEIWVGIFLLAALLAALFVCLKAANVTSIRTEPTYTLYATFDNIGGLKARSPVSIGGVVVGRVADITLDPKTYLPRVTLEIEQRYNHIPDTSSLSIRTSGLLGEQYLALNVGFEDPELGTAILKDGDTIQDTKSAMVLEDLIGQFLYGSKGDDNKNSGDAPAAAPGNNETTEPVGTTK
notes: expressed from the full mlaFEDCB operon amplified from genomic DNA; Homo-hexamer within the 2:2:6:2 MlaFEDB complex
B3: MlaF (natural protein, E. coli K-12, UniProt P63386 1-269, looked up)
chain: MEQSVANLVDMRDVSFTRGNRCIFDNISLTVPRGKITAIMGPSGIGKTTLLRLIGGQIAPDHGEILFDGENIPAMSRSRLYTVRKRMSMLFQSGALFTDMNVFDNVAYPLREHTQLPAPLLHSTVMMKLEAVGLRGAAKLMPSELSGGMARRAALARAIALEPDLIMFDEPFVGQDPITMGVLVKLISELNSALGVTCVVVSHDVPEVLSIADHAWILADKKIVAHGSAQALQANPDPRVRQFLDGIADGPVPFRYPAGDYHADLLPGS
notes: expressed from the full mlaFEDCB operon amplified from genomic DNA; Homodimer within the 2:2:6:2 MlaFEDB complex; also called NBD protein MlaF
B4: MlaF E170Q (natural protein, E. coli K-12, UniProt P63386 1-269, looked up)
chain: B3 chain with E170Q
notes: MlaF, E. coli K-12, with the catalytic glutamate of Walker B changed to glutamine; expressed from the full mlaFEDCB operon; PDB 7CGE holds the wild-type parent; also called MlaFEQ; EQ mutant; source: E. coli C43(DE3), co-expressed from mutated pET20b-mlaFEDCB, purified as MlaFEQEDB, in nanodisc

How the values were obtained:
[1] = molecular target: the molecule itself; assay: cryo-EM structure; nucleotide-free MlaFEDB in POPG nanodisc (MSP1D1), 4 mg/mL, 25 mM Tris pH 7.8, 150 mM NaCl; 2.9 Å
MlaE = molecular target: B1; assay: as above; details: both partners purified
[2] = molecular target: the molecule itself; assay: cryo-EM structure; MlaFEQEDB (MlaF E170Q) in nanodisc, incubated with 2 mM ATP and 2 mM MgCl2 for 30 min at room temperature; two conformations, EQ_tall (4.3 Å) and EQ_close (3.7 Å)

Binder	stoichiometry N [1]	other results
B1	2	–
B2	–	stoichiometry N (MlaE): 3
B3	2	–
B4	–	stoichiometry N [2]: 2
